{"source": "patent US11739161B2", "about": "“Methods for treating and diagnosing prostate cancer” (Tufts Medical Center, Inc., priority 2017, dated 2023)", "molecules": {"B1": {"name": "RNASE4: recombinant human RNASE4 protein from pET11 expression in E. coli, purified by reversed-phase HPLC; added exogenously (protein, UniProt P34096 29-147, looked up)", "Ribonuclease 4": "QDGMYQRFLRQHVHPEETGGSDRYCNLMMQRRKMTLYHCKRFNTFIHEDIWNIRSICSTTNIQCKNGKMNCHEGVVKVTDCRDTGSSRAPNCRYRAIASTRRVVIACEGNPQVPVHFDG"}}, "assay_type_in_all_cases": "cell-based, human", "key": {"DU145 cells": {"system": "DU145 cells", "test": "RNASE4 knockdown, colony formation in soft agar", "details": "DU145, exogenous RNASE4 1 μg/ml, 14 days", "source_text": "FIGS. 14A-D. RNASE4 knockdown inhibits DU145 cell proliferation in vitro and colony formation in soft agar. (A) Immunoblot analysis of RNASE4 in DU145 cells stably transfected with shControl, shRNASE4-1, and shRNASE4-2. (B) qRT-PCR analysis of RNASE4 mRNA normalized to GAPDH in DU145 cells stably transfected with shControl, shRNASE4-1, and shRNASE4-2. (C) Effect of RNASE4 knockdown on cell proliferation. Cell numbers were counted by Coulter counter. Exogenous RNASE4, when presented, was at the concentration of 1 μg/ml. Data shown are from a representative experiment in triplicates of 3 independent experiments. (D) Effects of RNASE4 knockdown on colonies formation and growth of DU145 cells in soft agar. The same numbers of control and RNASE4 knockdown cells were seeded in soft agar, and grown in the absence or presence of 1 μg/ml of RNASE4 for 14 days. Colonies were counted and size measured on a Nikon Eclipse ti microscope. Top panels, representative images of colonies; scale bars=100 μm. Bottom panels, quantification of DU145 cell colonies and sizes in soft agar. Data shown are means±SEM of five randomly selected fields per dish from a representative experiment. **P≤0.01 and ***P≤0.001, by two-tailed Student's t test.\n(§1) Lentiviral mediated shRNA system (pGIPZ, Open Biosystems) was used to generate control and RNASE4 knockdown cell lines. […]"}, "PC-3 cells [1]": {"system": "PC-3 cells", "test": "RNASE4 knockdown, cell proliferation (Coulter counter)", "details": "PC-3, exogenous RNASE4 1 μg/ml", "source_text": "(§2) FIGS. 13A-D. RNASE4 knockdown reduces prostate cancer cell proliferation in vitro and colony formation in soft agar. (A) Immunoblot analysis of RNASE4 in PC-3 cells stably transfected with shControl, shRNASE4-1, and shRNASE4-2. (B) qRT-PCR analysis of RNASE4 mRNA normalized to GAPDH in PC-3 cells stably transfected with shControl, shRNASE4-1, and shRNASE4-2. (C) Effect of RNASE4 knockdown on cell proliferation. Cell numbers were counted by a Coulter counter. Exogenous RNASE4, when presented, was at the concentration of 1 μg/ml. Data shown are from representative experiment (in triplicates) of 3 independent repeats. (D) Effects of RNASE4 knockdown on colonies formation and growth of PC-3 cells in soft agar. The same numbers of control and RNASE4 knockdown cells were seeded in soft agar, and grown in the absence or presence of 1 μg/ml of RNASE4 for 14 days. Colonies were counted and size measured on a Nikon Eclipse ti microscope. Left panels, representative images of colonies; scale bars=100 μm. Right panels, quantification of colony numbers and sizes. Data shown are means±SEM from five randomly selected fields per dish from a representative experiment. *P≤0.05, **P≤0.01, and ***P≤0.001, by two-tailed Student's t test.\nas §1"}, "[2]": {"system": "AKT and S6 phosphorylation in PC-3 cells", "test": "RNASE4-induced phosphorylation of AKT and S6 (immunoblot)", "details": "serum-starved PC-3, RNASE4 1 μg/ml, time course", "protocol": "FIGS. 11A-F. RNASE4 induces PC-3 cell proliferation and phosphorylation of AKT and S6. (A) Exogenous RNASE4 (1 μg/ml) stimulates PC-3 cells proliferation in the presence of 2% FBS. Cell numbers were determined by MTT assay. (B) Time course of AKT and S6 phosphorylation of serum-starved PC-3 cells by RNASE4 (1 μg/ml). Left panels, immunoblots; right panels, quantification of p-AKT and p-S6 normalized to total AKT and S6 by Image J. (C) Effect of AKT inhibitor MK-2206, PI3K inhibitors LY294002 and Wortmannin, and mTOR inhibitor Rapamycin on RNASE4-induced PC-3 cell proliferation. Cells were pre-incubated with the inhibitors at the indicated concentrations for 1 hour prior to be stimulated by RNASE4 (1 μg/ml) for 3 days. Cell numbers were determined by MTT assay. (D) Human phospho-RTK antibody array analysis of starved PC-3 cells treated with or without 1 μg/ml RNASE4 for 5 minutes. (E) Time course of AXL phosphorylation stimulated by RNASE4 in PC-3 cells. Serum-starved PC-3 cells were treated with 1 μg/ml RNASE4 for different time. Cell lysates were analyzed for total AXL and phopho-AXL by immunoblotting. Left panels, immunoblots; right panel, quantification phospho-AXL normalized to total AXL by Image J analysis. (F) Effect of AXL inhibitor R428 on RNASE4-induced PC-3 cell proliferation. […] Cell numbers were determined by MTT assay. […]"}, "PC-3 cells [3]": {"system": "PC-3 cells", "test": "RNASE4-induced cell proliferation (MTT assay)", "details": "exogenous RNASE4 1 μg/ml, PC-3, 2% FBS", "protocol": "FIGS. 11A-F. RNASE4 induces PC-3 cell proliferation and phosphorylation of AKT and S6. (A) Exogenous RNASE4 (1 μg/ml) stimulates PC-3 cells proliferation in the presence of 2% FBS. Cell numbers were determined by MTT assay. (B) Time course of AKT and S6 phosphorylation of serum-starved PC-3 cells by RNASE4 (1 μg/ml). Left panels, immunoblots; right panels, quantification of p-AKT and p-S6 normalized to total AKT and S6 by Image J. (C) Effect of AKT inhibitor MK-2206, PI3K inhibitors LY294002 and Wortmannin, and mTOR inhibitor Rapamycin on RNASE4-induced PC-3 cell proliferation. Cells were pre-incubated with the inhibitors at the indicated concentrations for 1 hour prior to be stimulated by RNASE4 (1 μg/ml) for 3 days. Cell numbers were determined by MTT assay. (D) Human phospho-RTK antibody array analysis of starved PC-3 cells treated with or without 1 μg/ml RNASE4 for 5 minutes. (E) Time course of AXL phosphorylation stimulated by RNASE4 in PC-3 cells. Serum-starved PC-3 cells were treated with 1 μg/ml RNASE4 for different time. Cell lysates were analyzed for total AXL and phopho-AXL by immunoblotting. Left panels, immunoblots; right panel, quantification phospho-AXL normalized to total AXL by Image J analysis. (F) Effect of AXL inhibitor R428 on RNASE4-induced PC-3 cell proliferation. Serum-starved PC-3 cells were incubated with 1 or 3 μM R428 for 3 hours and then stimulated by 1 μg/ml of RNASE4 for 3 days. Cell numbers were determined by MTT assay. Data shown are means±SEM of a representative experiments in triplicates of 3 independent repeats. **P≤0.01 and ***P≤0.001, by unpaired two-tailed Student's t test."}, "PC-3 cells [4]": {"system": "PC-3 cells", "test": "RNASE4 knockdown, colony formation in soft agar", "details": "PC-3, exogenous RNASE4 1 μg/ml, 14 days", "source_text": "as §2, §1"}}, "data": [{"molecule": "B1", "values": [{"measurement": "rescue of the effect of RNASE4 knockdown on colony formation", "setting": "DU145 cells", "result": "able to rescue"}, {"measurement": "rescue of the effect of RNASE4 knockdown on cell proliferation", "setting": "PC-3 cells [1]", "result": "able to rescue"}, {"measurement": "activation (phosphorylation) of AKT and S6", "setting": "[2]", "result": "rapidly and continuously activated"}, {"measurement": "cell proliferation", "setting": "PC-3 cells [3]", "result": "stimulates"}, {"measurement": "rescue of the effect of RNASE4 knockdown on colony formation", "setting": "PC-3 cells [4]", "result": "able to rescue"}]}]}
